Source: IntAct's records for PubMed 28497574

B1: Methylmalonic aciduria type A protein, mitochondrial (Homo sapiens), Q8IVH4 (parent)
chain: MPMLLPHPHQHFLKGLLRAPFRCYHFIFHSSTHLGSGIPCAQPFNSLGLHCTKWMLLSDGLKRKLCVQTTLKDHTEGLSDKEQRFVDKLYTGLIQGQRACLAEAITLVESTHSRKKELAQVLLQKVLLYHREQEQSNKGKPLAFRVGLSGPPGAGKSTFIEYFGKMLTERGHKLSVLAVDPSSCTSGGSLLGDKTRMTELSRDMNAYIRPSPTRGTLGGVTRTTNEAILLCEGAGYDIILIETVGVGQSEFAVADMVDMFVLLLPPAGGDELQGIKRGIIEMADLVAVTKSDGDLIVPARRIQAEYVSALKLLRKRSQVWKPKVIRISARSGEGISEMWDKMKDFQDLMLASGELTAKRRKQQKVWMWNLIQESVLEHFRTHPTVREQIPLLEQKVLIGALSPGLAADFLLKAFKSRD
partner: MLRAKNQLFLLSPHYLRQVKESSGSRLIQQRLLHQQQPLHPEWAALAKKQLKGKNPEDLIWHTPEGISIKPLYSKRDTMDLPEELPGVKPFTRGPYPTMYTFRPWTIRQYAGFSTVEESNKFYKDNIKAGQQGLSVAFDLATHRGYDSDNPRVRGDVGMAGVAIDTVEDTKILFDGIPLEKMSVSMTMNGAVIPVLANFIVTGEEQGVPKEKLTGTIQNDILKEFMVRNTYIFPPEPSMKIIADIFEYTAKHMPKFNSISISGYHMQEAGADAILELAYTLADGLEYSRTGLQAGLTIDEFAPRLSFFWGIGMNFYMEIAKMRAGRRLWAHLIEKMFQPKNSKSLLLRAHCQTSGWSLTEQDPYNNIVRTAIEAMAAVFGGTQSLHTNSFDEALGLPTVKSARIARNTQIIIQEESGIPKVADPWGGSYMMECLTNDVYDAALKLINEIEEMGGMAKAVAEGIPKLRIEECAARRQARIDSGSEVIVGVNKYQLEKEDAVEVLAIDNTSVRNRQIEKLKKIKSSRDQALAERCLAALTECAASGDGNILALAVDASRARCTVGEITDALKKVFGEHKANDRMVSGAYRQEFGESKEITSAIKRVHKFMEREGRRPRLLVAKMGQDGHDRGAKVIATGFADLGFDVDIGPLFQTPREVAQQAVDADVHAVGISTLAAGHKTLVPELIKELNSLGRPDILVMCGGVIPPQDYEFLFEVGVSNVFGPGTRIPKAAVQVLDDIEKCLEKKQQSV

Variants of: B1
Conditions: with muta_human MMUT

| Variant | effect of a mutation on the interaction |
| --- | --- |
| MPMLLPHPHQHFLKGLLRAPFRCYHFIFHSSTHLGSGIPCAQPFNSLGLHCTKWMLLSDGLKRKLCVQTTLKDHTEGLSDKEQRFVDKLYTGLIQGQRACLAEAITLVESTHSRKKELAQVLLQKVLLYHREQEQSNKGKPLAFRVGLSGPPGAGKSTFIEYFGKMLTERGHKLSVLAVDPSSCTSGGSLLGDKTRMTELSRDMNAYISPSPTRGTLGGVTRTTNEAILLCEGAGYDIILIETVGVGQSEFAVADMVDMFVLLLPPAGGDELQGIKRGIIEMADLVAVTKSDGDLIVPARRIQAEYVSALKLLRKRSQVWKPKVIRISARSGEGISEMWDKMKDFQDLMLASGELTAKRRKQQKVWMWNLIQESVLEHFRTHPTVREQIPLLEQKVLIGALSPGLAADFLLKAFKSRD [R209S] | disrupting interaction strength |
| MPMLLPHPHQHFLKGLLRAPFRCYHFIFHSSTHLGSGIPCAQPFNSLGLHCTKWMLLSDGLKRKLCVQTTLKDHTEGLSDKEQRFVDKLYTGLIQGQRACLAEAITLVESTHSRKKELAQVLLQKVLLYHREQEQSNKGKPLAFRVGLSGPPGAGKSTFIEYFGKMLTERGHKLSVLAVDPSSCTSGGSLLGDKTRMTELSRDMNAYIRPSPTRGTLGGMTRTTNEAILLCEGAGYDIILIETVGVGQSEFAVADMVDMFVLLLPPAGGDELQGIKRGIIEMADLVAVTKSDGDLIVPARRIQAEYVSALKLLRKRSQVWKPKVIRISARSGEGISEMWDKMKDFQDLMLASGELTAKRRKQQKVWMWNLIQESVLEHFRTHPTVREQIPLLEQKVLIGALSPGLAADFLLKAFKSRD [V220M] | disrupting interaction strength |
| MPMLLPHPHQHFLKGLLRAPFRCYHFIFHSSTHLGSGIPCAQPFNSLGLHCTKWMLLSDGLKRKLCVQTTLKDHTEGLSDKEQRFVDKLYTGLIQGQRACLAEAITLVESTHSRKKELAQVLLQKVLLYHREQEQSNKGKPLAFRVELSGPPGAGKSTFIEYFGKMLTERGHKLSVLAVDPSSCTSGGSLLGDKTRMTELSRDMNAYIRPSPTRGTLGGVTRTTNEAILLCEGAGYDIILIETVGVGQSEFAVADMVDMFVLLLPPAGGDELQGIKRGIIEMADLVAVTKSDGDLIVPARRIQAEYVSALKLLRKRSQVWKPKVIRISARSGEGISEMWDKMKDFQDLMLASGELTAKRRKQQKVWMWNLIQESVLEHFRTHPTVREQIPLLEQKVLIGALSPGLAADFLLKAFKSRD [G147E] | disrupting interaction strength |
| MPMLLPHPHQHFLKGLLRAPFRCYHFIFHSSTHLGSGIPCAQPFNSLGLHCTKWMLLSDGLKRKLCVQTTLKDHTEGLSDKEQRFVDKLYTGLIQGQRACLAEAITLVESTHSRKKELAQVLLQKVLLYHREQEQSNKGKPLAFRVGLSGPPGAGKSTFIEYFGKMLTERGHKLSVLAVDPSSCTSGGSLLGDKTRMTELSRDMNAYIRPSPTRGTLGGVTRTTNEAILLCEGAGYDIILIETVGVGQSEFAVADMVDMFVLLLPPAGGDELQGIKRGIIEMADLVAVTKSVGDLIVPARRIQAEYVSALKLLRKRSQVWKPKVIRISARSGEGISEMWDKMKDFQDLMLASGELTAKRRKQQKVWMWNLIQESVLEHFRTHPTVREQIPLLEQKVLIGALSPGLAADFLLKAFKSRD [D292V] | disrupting interaction strength |
| MPMLLPHPHQHFLKGLLRAPFRCYHFIFHSSTHLGSGIPCAQPFNSLGLHCTKWMLLSDGLKRKLCVQTTLKDHTEGLSDKEQRFVDKLYTGLIQGQRACLAEAITLVESTHSRKKELAQVLLQKVLLYHREQEQSNKGKPLAFRVGLSGPPGAGKSTFIEYFGKMLTERGHKLSVLAVDPSSCTSGGSLLDDKTRMTELSRDMNAYIRPSPTRGTLGGVTRTTNEAILLCEGAGYDIILIETVGVGQSEFAVADMVDMFVLLLPPAGGDELQGIKRGIIEMADLVAVTKSDGDLIVPARRIQAEYVSALKLLRKRSQVWKPKVIRISARSGEGISEMWDKMKDFQDLMLASGELTAKRRKQQKVWMWNLIQESVLEHFRTHPTVREQIPLLEQKVLIGALSPGLAADFLLKAFKSRD [G192D] | decreasing interaction strength |
| MPMLLPHPHQHFLKGLLRAPFRCYHFIFHSSTHLGSGIPCAQPFNSLGLHCTKWMLLSDGLKRKLCVQTTLKDHTEGLSDKEQRFVDKLYTGLIQGQRACLAEAITLVESTHSRKKELAQVLLQKVLLYHREQEQSNKGKPLAFRVGLSGPPGAGKSTFIEYFGKMLTERGHKLSVLAVDPSSCTSGGSLLGDKTRMTELSRDMNAYIRPSPTRGTLGGVTRTTNEAILLCEGAGYDIILIETVGVGQSKFAVADMVDMFVLLLPPAGGDELQGIKRGIIEMADLVAVTKSDGDLIVPARRIQAEYVSALKLLRKRSQVWKPKVIRISARSGEGISEMWDKMKDFQDLMLASGELTAKRRKQQKVWMWNLIQESVLEHFRTHPTVREQIPLLEQKVLIGALSPGLAADFLLKAFKSRD [E250K] | decreasing interaction strength |
| MPMLLPHPHQHFLKGLLRAPFRCYHFIFHSSTHLGSGIPCAQPFNSLGLHCTKWMLLSDGLKRKLCVQTTLKDHTEGLSDKEQRFVDKLYTGLIQGQRACLAEAITLVESTHSRKKELAQVLLQKVLLYHREQEQSNKGKPLAFRVGLSGPPGAGKSTFIEYFGKMLTERGHKLSVLAVDPSSCTSGGSLLGDKTRMTELSRDMNAYIRPSPTRGTLGGVTRTTNEAILLCEGAGYDIILIETVGVGQSEFAVADMVDMFVLLLPPAGGDELQSIKRGIIEMADLVAVTKSDGDLIVPARRIQAEYVSALKLLRKRSQVWKPKVIRISARSGEGISEMWDKMKDFQDLMLASGELTAKRRKQQKVWMWNLIQESVLEHFRTHPTVREQIPLLEQKVLIGALSPGLAADFLLKAFKSRD [G274S] | decreasing interaction strength |
| MPMLLPHPHQHFLKGLLRAPFRCYHFIFHSSTHLGSGIPCAQPFNSLGLHCTKWMLLSDGLKRKLCVQTTLKDHTEGLSDKEQRFVDKLYTGLIQGQRACLAEAITLVESTHSRKKELAQVLLQKVLLYHREQEQSNKGKPLAFRVGLSGPPGAGKSTFIEYFGKMLTERGHKLSVLAVDPSSCTSGRSLLGDKTRMTELSRDMNAYIRPSPTRGTLGGVTRTTNEAILLCEGAGYDIILIETVGVGQSEFAVADMVDMFVLLLPPAGGDELQGIKRGIIEMADLVAVTKSDGDLIVPARRIQAEYVSALKLLRKRSQVWKPKVIRISARSGEGISEMWDKMKDFQDLMLASGELTAKRRKQQKVWMWNLIQESVLEHFRTHPTVREQIPLLEQKVLIGALSPGLAADFLLKAFKSRD [G188R] | disrupting interaction strength |
